In US20230190900 (published 2023):

T1: human FcγRIIb (CD32B) (human, UniProt P31994)
T1 chain: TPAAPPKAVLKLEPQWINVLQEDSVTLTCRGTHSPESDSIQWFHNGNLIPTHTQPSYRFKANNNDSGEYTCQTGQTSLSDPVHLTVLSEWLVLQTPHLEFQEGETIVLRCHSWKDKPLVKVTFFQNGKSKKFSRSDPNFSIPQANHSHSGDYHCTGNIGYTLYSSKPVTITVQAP

T2: murine FcγRIIb (mouse, UniProt P08101)
T2 chain: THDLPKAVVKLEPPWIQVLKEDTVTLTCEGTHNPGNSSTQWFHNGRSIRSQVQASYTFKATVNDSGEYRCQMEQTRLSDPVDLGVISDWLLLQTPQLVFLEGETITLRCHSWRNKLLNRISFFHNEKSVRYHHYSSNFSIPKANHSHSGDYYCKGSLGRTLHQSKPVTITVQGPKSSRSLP

T3: human FcγRIIa (CD32A) (human, UniProt P12318)
T3 chain: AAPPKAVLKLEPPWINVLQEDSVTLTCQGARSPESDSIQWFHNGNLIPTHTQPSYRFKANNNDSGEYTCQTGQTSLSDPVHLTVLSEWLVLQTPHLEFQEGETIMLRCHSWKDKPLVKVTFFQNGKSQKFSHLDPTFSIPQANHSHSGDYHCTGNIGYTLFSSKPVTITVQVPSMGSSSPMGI

T4: human FcγRIIIb (NA1) CD16B (human, UniProt O75015)
T4 chain: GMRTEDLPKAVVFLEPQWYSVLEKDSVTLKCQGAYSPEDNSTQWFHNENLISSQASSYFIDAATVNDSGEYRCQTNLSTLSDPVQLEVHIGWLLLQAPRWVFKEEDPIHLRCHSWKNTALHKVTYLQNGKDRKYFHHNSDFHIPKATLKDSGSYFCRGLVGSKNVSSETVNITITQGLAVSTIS

T5: human FcγRI (CD64) (human, UniProt P12314)
T5 chain: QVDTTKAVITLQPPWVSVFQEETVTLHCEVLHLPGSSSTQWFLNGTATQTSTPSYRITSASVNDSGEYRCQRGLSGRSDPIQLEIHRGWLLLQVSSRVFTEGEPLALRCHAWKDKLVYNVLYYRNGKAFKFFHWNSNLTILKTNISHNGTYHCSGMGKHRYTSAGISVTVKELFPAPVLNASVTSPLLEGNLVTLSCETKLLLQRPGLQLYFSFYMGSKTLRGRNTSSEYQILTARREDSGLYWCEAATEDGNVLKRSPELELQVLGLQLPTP

T6: murine FcγRIII (mouse, UniProt P08508)
T6 chain: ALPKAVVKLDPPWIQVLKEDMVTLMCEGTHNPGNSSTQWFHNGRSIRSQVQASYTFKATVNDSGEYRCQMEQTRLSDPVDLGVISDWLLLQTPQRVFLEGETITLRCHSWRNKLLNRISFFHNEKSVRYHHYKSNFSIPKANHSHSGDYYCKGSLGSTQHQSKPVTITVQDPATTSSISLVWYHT

T7: murine FcγRIV (CD16-2) (mouse, UniProt A0A0B4J1G0)
T7 chain: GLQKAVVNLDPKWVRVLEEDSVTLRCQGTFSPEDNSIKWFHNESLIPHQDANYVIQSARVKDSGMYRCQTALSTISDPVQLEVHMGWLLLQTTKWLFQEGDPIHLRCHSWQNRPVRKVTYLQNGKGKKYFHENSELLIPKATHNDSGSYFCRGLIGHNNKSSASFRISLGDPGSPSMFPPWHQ

T8: murine FcRn (mouse, UniProt Q61559)
T8 chain 1: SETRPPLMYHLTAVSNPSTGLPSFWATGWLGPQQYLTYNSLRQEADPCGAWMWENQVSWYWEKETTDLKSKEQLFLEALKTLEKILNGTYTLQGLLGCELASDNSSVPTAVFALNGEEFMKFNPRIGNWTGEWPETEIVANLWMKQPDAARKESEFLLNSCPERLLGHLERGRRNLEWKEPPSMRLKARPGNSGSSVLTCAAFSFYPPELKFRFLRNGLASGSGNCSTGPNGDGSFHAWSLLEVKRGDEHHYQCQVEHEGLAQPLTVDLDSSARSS
T8 chain 2: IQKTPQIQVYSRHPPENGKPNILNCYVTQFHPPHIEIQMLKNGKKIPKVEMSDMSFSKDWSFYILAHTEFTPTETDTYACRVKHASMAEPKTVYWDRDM

T9: human FcγRIIc (CD32C) (human, UniProt P31995)
T9 chain: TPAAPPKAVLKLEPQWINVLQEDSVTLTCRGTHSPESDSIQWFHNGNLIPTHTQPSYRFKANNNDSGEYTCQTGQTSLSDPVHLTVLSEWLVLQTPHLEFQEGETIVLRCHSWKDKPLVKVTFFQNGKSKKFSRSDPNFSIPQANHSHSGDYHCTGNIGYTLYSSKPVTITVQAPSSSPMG

T10: cynomolgus FcγRIIa (CD32A) (cynomolgus)
T10 chain: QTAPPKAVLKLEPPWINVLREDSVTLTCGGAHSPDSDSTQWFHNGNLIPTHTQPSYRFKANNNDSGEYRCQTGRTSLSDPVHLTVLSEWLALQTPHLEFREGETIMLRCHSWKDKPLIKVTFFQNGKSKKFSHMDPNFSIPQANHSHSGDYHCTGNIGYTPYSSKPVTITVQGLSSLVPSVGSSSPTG

T11: murine FcγRI (mouse, UniProt P26151)
T11 chain: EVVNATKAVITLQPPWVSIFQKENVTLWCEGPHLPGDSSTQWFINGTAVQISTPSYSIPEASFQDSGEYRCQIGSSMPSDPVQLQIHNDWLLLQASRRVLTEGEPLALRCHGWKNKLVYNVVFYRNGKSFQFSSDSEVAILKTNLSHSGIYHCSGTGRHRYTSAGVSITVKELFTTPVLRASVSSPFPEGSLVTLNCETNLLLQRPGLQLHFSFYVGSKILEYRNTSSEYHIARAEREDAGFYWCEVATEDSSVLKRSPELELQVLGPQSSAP

T12: cynomolgus FcRn (cynomolgus, UniProt Q8SPV9)
T12 chain 1: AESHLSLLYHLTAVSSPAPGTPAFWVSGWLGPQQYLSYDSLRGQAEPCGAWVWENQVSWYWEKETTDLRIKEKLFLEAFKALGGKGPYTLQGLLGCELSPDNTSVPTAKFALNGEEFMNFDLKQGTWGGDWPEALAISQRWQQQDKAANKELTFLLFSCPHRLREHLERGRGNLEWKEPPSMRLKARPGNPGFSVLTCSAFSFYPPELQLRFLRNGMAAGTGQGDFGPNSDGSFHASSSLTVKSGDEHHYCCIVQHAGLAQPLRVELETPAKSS
T12 chain 2: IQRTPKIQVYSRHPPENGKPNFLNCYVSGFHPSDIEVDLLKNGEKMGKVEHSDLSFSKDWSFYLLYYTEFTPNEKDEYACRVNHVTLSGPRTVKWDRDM


Tests used:
EGFRvIII (CHO cells) = EGFRvIII (CHO cells) (human); experiment: FACS, CHO cells 37C
human FcγRIIb (CD32B) = target: T1, human FcγRIIb (CD32B); experiment: SPR
murine FcγRIIb = target: T2, murine FcγRIIb; experiment: SPR
human FcγRIIa (CD32A) = target: T3, human FcγRIIa (CD32A); experiment: SPR
[1] = target: T4, human FcγRIIIb (NA1) CD16B; experiment: SPR
human FcγRI (CD64) = target: T5, human FcγRI (CD64); experiment: SPR
murine FcγRIII = target: T6, murine FcγRIII; experiment: SPR
murine FcγRIV (CD16-2) = target: T7, murine FcγRIV (CD16-2); experiment: SPR
murine FcRn = target: T8, murine FcRn; experiment: SPR, pH 6.0
human FcγRIIc (CD32C) = target: T9, human FcγRIIc (CD32C); experiment: SPR
[2] = target: T10, cynomolgus FcγRIIa (CD32A); experiment: SPR
murine FcγRI = target: T11, murine FcγRI; experiment: SPR
cynomolgus FcRn = target: T12, cynomolgus FcRn; experiment: SPR, pH 6.0
human FcRn = human FcRn (human, UniProt P55899); experiment: SPR, pH 6.0

| Kd (EGFRvIII (CHO cells)) [nM] | binding result (human FcγRIIb (CD32B)) | binding result (murine FcγRIIb) | binding result (human FcγRIIa (CD32A)) | binding result [1] | binding result (human FcγRI (CD64)) | binding result (murine FcγRIII) | binding result (murine FcγRIV (CD16-2)) | binding result (murine FcRn) | binding result (human FcγRIIc (CD32C)) | binding result [2] | binding result (murine FcγRI) | binding result (cynomolgus FcRn) | binding result (human FcRn) | Binder |
| --- | --- | --- | --- | --- | --- | --- | --- | --- | --- | --- | --- | --- | --- | --- |
| 0.5 |  |  |  |  |  |  |  |  |  |  |  |  |  | Tandem diabody EGFR arm (antibody, V domains shown) VH: QVQLQESGPGLVKPSETLSLTCTVSGGSVSSGSYYWSWIRQPPGKGLEWIGYIYYSGSTNYNPSLKSRVTISVDTSKNQFSLKLSSVTAADTAVYYCARNPISIPAFDIWGQGTMVTVSS VL: QPVLTQPPSVSVAPGKTARITCGGNNIGSKSVHWYQQKPGQAPVLVIYYDSDRPSGIPERFSGSNSGNTATLTISRVEAGDEADYYCQVWDTSSDHVLFGGGTKLTVL |
|  | no binding | no binding | no binding | no binding | no binding | no binding | no binding | no binding | no binding | no binding | no binding | no binding | no binding | EGFR/CD16A tandem diabody (full) (antibody) chain 1: QVQLQESGPGLVKPSETLSLTCTVSGGSVSSGSYYWSWIRQPPGKGLEWIGYIYYSGSTNYNPSLKSRVTISVDTSKNQFSLKLSSVTAADTAVYYCARNPISIPAFDIWGQGTMVTVSSGGSGGSGGSSYVLTQPSSVSVAPGQTATISCGGHNIGSKNVHWYQQRPGQSPVLVIYQDNKRPSGIPERFSGSNSGNTATLTISGTQAMDEADYYCQVWDNYSVLFGGGTKLTVLGGSGGSQVQLVQSGAEVKKPGESLKVSCKASGYTFTSYYMHWVRQAPGQGLEWMGIINPSGGSTSYAQKFQGRVTMTRDTSTSTVYMELSSLRSEDTAVYYCARGSAYYYDFADYWGQGTLVTVSSGGSGGSGGSQPVLTQPPSVSVAPGKTARITCGGNNIGSKSVHWYQQKPGQAPVLVIYYDSDRPSGIPERFSGSNSGNTATLTISRVEAGDEADYYCQVWDTSSDHVLFGGGTKLTVLAAAGSHHHHHH chain 2: QVQLQESGPGLVKPSETLSLTCTVSGGSVSSGSYYWSWIRQPPGKGLEWIGYIYYSGSTNYNPSLKSRVTISVDTSKNQFSLKLSSVTAADTAVYYCARNPISIPAFDIWGQGTMVTVSSGGSGGSGGSSYVLTQPSSVSVAPGQTATISCGGHNIGSKNVHWYQQRPGQSPVLVIYQDNKRPSGIPERFSGSNSGNTATLTISGTQAMDEADYYCQVWDNYSVLFGGGTKLTVLGGSGGSQVQLVQSGAEVKKPGESLKVSCKASGYTFTSYYMHWVRQAPGQGLEWMGIINPSGGSTSYAQKFQGRVTMTRDTSTSTVYMELSSLRSEDTAVYYCARGSAYYYDFADYWGQGTLVTVSSGGSGGSGGSQPVLTQPPSVSVAPGKTARITCGGNNIGSKSVHWYQQKPGQAPVLVIYYDSDRPSGIPERFSGSNSGNTATLTISRVEAGDEADYYCQVWDTSSDHVLFGGGTKLTVLAAAGSHHHHHH |
